The text below walks through data of IntAct's records for PubMed 29039417.

B1: BBSome complex member BBS4 (Homo sapiens), Q96RK4 (parent)
chain: MAEERVATRTQFPVSTESQKPRQKKAPEFPILEKQNWLIHLHYIRKDYEACKAVIKEQLQETQGLCEYAIYVQALIFRLEGNIQESLELFQTCAVLSPQSADNLKQVARSLFLLGKHKAAIEVYNEAAKLNQKDWEISHNLGVCYIYLKQFNKAQDQLHNALNLNRHDLTYIMLGKIHLLEGDLDKAIEVYKKAVEFSPENTELLTTLGLLYLQLGIYQKAFEHLGNALTYDPTNYKAILAAGSMMQTHGDFDVALTKYRVVACAVPESPPLWNNIGMCFFGKKKYVAAISCLKRANYLAPFDWKILYNLGLVHLTMQQYASAFHFLSAAINFQPKMGELYMLLAVALTNLEDIENAKRAYAEAVHLDKCNPLVNLNYAVLLYNQGEKKNALAQYQEMEKKVSLLKDNSSLEFDSEMVEMAQKLGAALQVGEALVWTKPVKDPKSKHQTTSTSKPASFQQPLGSNQALGQAMSSAAAYRTLPSGAGGTSQFTKPPSLPLEPEPAVESSPTETSEQIREK
partner: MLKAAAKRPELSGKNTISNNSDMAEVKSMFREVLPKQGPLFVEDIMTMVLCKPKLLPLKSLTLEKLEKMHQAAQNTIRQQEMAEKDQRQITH

Variants of B1 are the subject of this assay. As to conditions: with bbip1_human BBIP1, A8MTZ0.
With MAEERVATRTQFPVSTESQKPRQKKAPEFPILEKQNWLIHLHYIRKDYEACKAVIKEQLQETQGLCEYAIYVQALIFRLEGNIQESLELFQTCAVLSPQSADNLKQVARSLFLLGKHKAAIEVYNEAAKLNQKDWEISHNLGVCYIYLKQFNKAQDQLHNALNLNRHDLTYIMLGKIHLLEGDLDKAIEVYKKAVEFSPENTELLTTLGLLYLQLGIYQKAFEHLGNALTYDPTNYKAILAAGSMMQTHGDFDVALTKYRVVACAVPESPPLWNNIGMCFFGKKKYVAAISCLKRANYLAPFDWKILYNLGLVHLTMQQYASAFHFLSAAINFQPKMGELYMLLAVALTNLEDIENAKRAYAEAVHLDKCNPLVNLNYAVLLYNQGEKKNALAQYQEMEKKVSLLKDNSSLEFDSEMVEMAQKLGAALQVAEALVWTKPVKDPKSKHQTTSTSKPASFQQPLGSNQALGQAMSSAAAYRTLPSGAGGTSQFTKPPSLPLEPEPAVESSPTETSEQIREK [G431A], the “effect of a mutation on the interaction” value is “with no effect”.

For MAEERVATRTQFPVSTESQKPRQKKAPEFPILEKQNWLIHLHYIRKDYEACKAVIKEQLQETQGLCEYAIYVQALIFRLEGNIQESLELFQTCAVLSPQSADNLKQVARSLFLLGKHKAAIEVYNEAAKLNQKDWEISHNLGVCYIYLKQFNKAQDQLHNALNLNRHDLTYIMLGKIHLLEGDLDKAIEVYKKAVEFSPENTELLTTLGLLYLQLGIYQKAFEHLGNALTYDPTNYKAILAAGSMMQTHGDFDVALTKYRVVACAVPESPPLWNNIGMCFFGKKKYVAAISCLKRANYLAPFDWKILYNLGLVHLTMQQYASAFHFLSAAINFQPKMGELYMLLAVALTNLEDIENAKRAYAEAVHLDKCNPLVNLNYAVLLYNQGEKKNALAQYQEMEKKVSLLKDNSSLEFDSEMVEMAQKLGAALQEGEALVWTKPVKDPKSKHQTTSTSKPASFQQPLGSNQALGQAMSSAAAYRTLPSGAGGTSQFTKPPSLPLEPEPAVESSPTETSEQIREK [V430E], the “effect of a mutation on the interaction” value is on record as “with no effect”.

With MAEERVATRTQFPVSTESQKPRQKKAPEFPILEKQNWLIHLHYIRKDYEACKAVIKEQLQETQGLCEYAIYVQALIFRLEGNIQESLELFQTCAVLSPQSADNLKQVARSLFLLGKHKAAIEVYNEAAKLNQKDWEISHNLGVCYIYLKQFNKAQDQLHNALNLNRHDLTYIMLGKIHLLEGDLDKAIEVYKKAVEFSPENTELLTTLGLLYLQLGIYQKAFEHLGNALTYDPTNYKAILAAGSMMQTHGDFDVALTKYRVVACAVPESPPLWNNIGMCFFGKKKYVAAISCLKRANYLAPFDWKILYNLGLVHLTMQQYASAFHFLSAAINFQPKMGELYMLLAVALTNLEDIENAKRAYAEAVHLDKCNPLVNLNYAVLLYNQGEKKNALAQYQEMEKKVSLLKDNSSLEFDSEMVEMAQKLGAALQAGEALVWTKPVKDPKSKHQTTSTSKPASFQQPLGSNQALGQAMSSAAAYRTLPSGAGGTSQFTKPPSLPLEPEPAVESSPTETSEQIREK [V430A], the “effect of a mutation on the interaction” value is reported as “with no effect”.

As to MAEERVATRTQFPVSTESQKPRQKKAPEFPILEKQNWLIHLHYIRKDYEACKAVIKEQLQETQGLCEYAIYVQALIFRLEGNIQESLELFQTCAVLSPQSADNLKQVARSLFLLGKHKAAIEVYNEAAKLNQKDWEISHNLGVCYIYLKQFNKAQDQLHNALNLNRHDLTYIMLGKIHLLEGDLDKAIEVYKKAVEFSPENTELLTTLGLLYLQLGIYQKAFEHLGNALTYDPTNYKAILAAGSMMQTHGDFDVALTKYRVVACAVPESPPLWNNIGMCFFGKKKYVAAISCLKRANYLAPFDWKILYNLGLVHLTMQQYASAFHFLSAAINFQPKMGELYMLLAVALTNLEDIENAKRAYAEAVHLDKCNPLVNLNYAVLLYNQGEKKNALAQYQEMEKKVSLLKDNSSLEFDSEMVEMAQKLGAALQKGEALVWTKPVKDPKSKHQTTSTSKPASFQQPLGSNQALGQAMSSAAAYRTLPSGAGGTSQFTKPPSLPLEPEPAVESSPTETSEQIREK [V430K], the “effect of a mutation on the interaction” value is “with no effect”.

Consider MAEERVATRTQFPVSTESQKPRQKKAPEFPILEKQNWLIHLHYIRKDYEACKAVIKEQLQETQGLCEYAIYVQALIFRLEGNIQESLELFQTCAVLSPQSADNLKQVARSLFLLGKHKAAIEVYNEAAKLNQKDWEISHNLGVCYIYLKQFNKAQDQLHNALNLNRHDLTYIMLGKIHLLEGDLDKAIEVYKKAVEFSPENTELLTTLGLLYLQLGIYQKAFEHLGNALTYDPTNYKAILAAGSMMQTHGDFDVALTKYRVVACAVPESPPLWNNIGMCFFGKKKYVAAISCLKRANYLAPFDWKILYNLGLVHLTMQQYASAFHFLSAAINFQPKMGELYMLLAVALTNLEDIENAKRAYAEAVHLDKCNPLVNLNYAVLLYNQGEKKNALAQYQEMEKKVSLLKDNSSLEFDSEMVEMAQKLGAAAQVGEALVWTKPVKDPKSKHQTTSTSKPASFQQPLGSNQALGQAMSSAAAYRTLPSGAGGTSQFTKPPSLPLEPEPAVESSPTETSEQIREK [L428A], for which the “effect of a mutation on the interaction” value is given as “with no effect”.

With MAEERVATRTQFPVSTESQKPRQKKAPEFPILEKQNWLIHLHYIRKDYEACKAVIKEQLQETQGLCEYAIYVQALIFRLEGNIQESLELFQTCAVLSPQSADNLKQVARSLFLLGKHKAAIEVYNEAAKLNQKDWEISHNLGVCYIYLKQFNKAQDQLHNALNLNRHDLTYIMLGKIHLLEGDLDKAIEVYKKAVEFSPENTELLTTLGLLYLQLGIYQKAFEHLGNALTYDPTNYKAILAAGSMMQTHGDFDVALTKYRVVACAVPESPPLWNNIGMCFFGKKKYVAAISCLKRANYLAPFDWKILYNLGLVHLTMQQYASAFHFLSAAINFQPKMGELYMLLAVALTNLEDIENAKRAYAEAVHLDKCNPLVNLNYAVLLYNQGEKKNALAQYQEMEKKVSLLKDNSSLEFDSEMVEMAQKLGAAPQVGEALVWTKPVKDPKSKHQTTSTSKPASFQQPLGSNQALGQAMSSAAAYRTLPSGAGGTSQFTKPPSLPLEPEPAVESSPTETSEQIREK [L428P], the “effect of a mutation on the interaction” value is on record as “disrupting interaction strength”.

Consider MAEERVATRTQFPVSTESQKPRQKKAPEFPILEKQNWLIHLHYIRKDYEACKAVIKEQLQETQGLCEYAIYVQALIFRLEGNIQESLELFQTCAVLSPQSADNLKQVARSLFLLGKHKAAIEVYNEAAKLNQKDWEISHNLGVCYIYLKQFNKAQDQLHNALNLNRHDLTYIMLGKIHLLEGDLDKAIEVYKKAVEFSPENTELLTTLGLLYLQLGIYQKAFEHLGNALTYDPTNYKAILAAGSMMQTHGDFDVALTKYRVVACAVPESPPLWNNIGMCFFGKKKYVAAISCLKRANYLAPFDWKILYNLGLVHLTMQQYASAFHFLSAAINFQPKMGELYMLLAVALTNLEDIENAKRAYAEAVHLDKCNPLVNLNYAVLLYNQGEKKNALAQYQEMEKKVSLLKDNSSLEFDSEMVEMAQKLGAAKQVGEALVWTKPVKDPKSKHQTTSTSKPASFQQPLGSNQALGQAMSSAAAYRTLPSGAGGTSQFTKPPSLPLEPEPAVESSPTETSEQIREK [L428K], for which the “effect of a mutation on the interaction” value is “with no effect”.

For MAEERVATRTQFPVSTESQKPRQKKAPEFPILEKQNWLIHLHYIRKDYEACKAVIKEQLQETQGLCEYAIYVQALIFRLEGNIQESLELFQTCAVLSPQSADNLKQVARSLFLLGKHKAAIEVYNEAAKLNQKDWEISHNLGVCYIYLKQFNKAQDQLHNALNLNRHDLTYIMLGKIHLLEGDLDKAIEVYKKAVEFSPENTELLTTLGLLYLQLGIYQKAFEHLGNALTYDPTNYKAILAAGSMMQTHGDFDVALTKYRVVACAVPESPPLWNNIGMCFFGKKKYVAAISCLKRANYLAPFDWKILYNLGLVHLTMQQYASAFHFLSAAINFQPKMGELYMLLAVALTNLEDIENAKRAYAEAVHLDKCNPLVNLNYAVLLYNQGEKKNALAQYQEMEKKVSLLKDNSSLEFDSEMVEMAQKLGAAEQVGEALVWTKPVKDPKSKHQTTSTSKPASFQQPLGSNQALGQAMSSAAAYRTLPSGAGGTSQFTKPPSLPLEPEPAVESSPTETSEQIREK [L428E], the “effect of a mutation on the interaction” value is “with no effect”.

MAEERVATRTQFPVSTESQKPRQKKAPEFPILEKQNWLIHLHYIRKDYEACKAVIKEQLQETQGLCEYAIYVQALIFRLEGNIQESLELFQTCAVLSPQSADNLKQVARSLFLLGKHKAAIEVYNEAAKLNQKDWEISHNLGVCYIYLKQFNKAQDQLHNALNLNRHDLTYIMLGKIHLLEGDLDKAIEVYKKAVEFSPENTELLTTLGLLYLQLGIYQKAFEHLGNALTYDPTNYKAILAAGSMMQTHGDFDVALTKYRVVACAVPESPPLWNNIGMCFFGKKKYVAAISCLKRANYLAPFDWKILYNLGLVHLTMQQYASAFHFLSAAINFQPKMGELYMLLAVALTNLEDIENAKRAYAEAVHLDKCNPLVNLNYAVLLYNQGEKKNALAQYQEMEKKVSLLKDNSSLEFDSEMVEMAQKLGAALKVGEALVWTKPVKDPKSKHQTTSTSKPASFQQPLGSNQALGQAMSSAAAYRTLPSGAGGTSQFTKPPSLPLEPEPAVESSPTETSEQIREK [Q429K]: the “effect of a mutation on the interaction” value is “with no effect”.

For the variant MAEERVATRTQFPVSTESQKPRQKKAPEFPILEKQNWLIHLHYIRKDYEACKAVIKEQLQETQGLCEYAIYVQALIFRLEGNIQESLELFQTCAVLSPQSADNLKQVARSLFLLGKHKAAIEVYNEAAKLNQKDWEISHNLGVCYIYLKQFNKAQDQLHNALNLNRHDLTYIMLGKIHLLEGDLDKAIEVYKKAVEFSPENTELLTTLGLLYLQLGIYQKAFEHLGNALTYDPTNYKAILAAGSMMQTHGDFDVALTKYRVVACAVPESPPLWNNIGMCFFGKKKYVAAISCLKRANYLAPFDWKILYNLGLVHLTMQQYASAFHFLSAAINFQPKMGELYMLLAVALTNLEDIENAKRAYAEAVHLDKCNPLVNLNYAVLLYNQGEKKNALAQYQEMEKKVSLLKDNSSLEFDSEMVEMAQKLGAALEVGEALVWTKPVKDPKSKHQTTSTSKPASFQQPLGSNQALGQAMSSAAAYRTLPSGAGGTSQFTKPPSLPLEPEPAVESSPTETSEQIREK [Q429E], the “effect of a mutation on the interaction” value is “with no effect”.

MAEERVATRTQFPVSTESQKPRQKKAPEFPILEKQNWLIHLHYIRKDYEACKAVIKEQLQETQGLCEYAIYVQALIFRLEGNIQESLELFQTCAVLSPQSADNLKQVARSLFLLGKHKAAIEVYNEAAKLNQKDWEISHNLGVCYIYLKQFNKAQDQLHNALNLNRHDLTYIMLGKIHLLEGDLDKAIEVYKKAVEFSPENTELLTTLGLLYLQLGIYQKAFEHLGNALTYDPTNYKAILAAGSMMQTHGDFDVALTKYRVVACAVPESPPLWNNIGMCFFGKKKYVAAISCLKRANYLAPFDWKILYNLGLVHLTMQQYASAFHFLSAAINFQPKMGELYMLLAVALTNLEDIENAKRAYAEAVHLDKCNPLVNLNYAVLLYNQGEKKNALAQYQEMEKKVSLLKDNSSLEFDSEMVEMAQKLGAALAVGEALVWTKPVKDPKSKHQTTSTSKPASFQQPLGSNQALGQAMSSAAAYRTLPSGAGGTSQFTKPPSLPLEPEPAVESSPTETSEQIREK [Q429A]: the “effect of a mutation on the interaction” value was “with no effect”.

Turning to MAEERVATRTQFPVSTESQKPRQKKAPEFPILEKQNWLIHLHYIRKDYEACKAVIKEQLQETQGLCEYAIYVQALIFRLEGNIQESLELFQTCAVLSPQSADNLKQVARSLFLLGKHKAAIEVYNEAAKLNQKDWEISHNLGVCYIYLKQFNKAQDQLHNALNLNRHDLTYIMLGKIHLLEGDLDKAIEVYKKAVEFSPENTELLTTLGLLYLQLGIYQKAFEHLGNALTYDPTNYKAILAAGSMMQTHGDFDVALTKYRVVACAVPESPPLWNNIGMCFFGKKKYVAAISCLKRANYLAPFDWKILYNLGLVHLTMQQYASAFHFLSAAINFQPKMGELYMLLAVALTNLEDIENAKRAYAEAVHLDKCNPLVNLNYAVLLYNQGEKKNALAQYQEMEKKVSLLKDNSSLEFDSEMVEMAQKLGAKLQVGEALVWTKPVKDPKSKHQTTSTSKPASFQQPLGSNQALGQAMSSAAAYRTLPSGAGGTSQFTKPPSLPLEPEPAVESSPTETSEQIREK [A427K], the “effect of a mutation on the interaction” value is given as “with no effect”.
